Measurements published in publication PMC3791462, “Role of the C-terminal domain in the structure and function of tetrameric sodium channels” (Nature Communications, 2013).

B1: NavMs-pore+CTD (wild-type pore with full-length C-terminal domain of the NavMs sodium channel from Magnetococcus marinus MC-1) (domain or fragment, UniProt A0L5S6 130-274, looked up)
chain: GVGSVAALLTVVFYIAAVMATNLYGATFPEWFGDLSKSLYTLFQVMTLESWSMGIVRPVMNVHPNAWVFFIPFIMLTTFTVLNLFIGIIVDAMAITKEQEEEAKTGHHQEPISQTLLHLGDRLDRIEKQLAQNNELLQRQQPQKK
notes: Plasmid pET15b; also called unlabelled wild-type construct; wild-type pore+CTD protein; source: E. coli C41(DE3), purified (HisTrap HP, thrombin, second HisTrap HP, size exclusion) in HEGA-10
B2: NavMs-pore+CTD A232C, PROXYL spin-labelled (domain or fragment, Magnetococcus marinus MC-1, UniProt A0L5S6 130-274, looked up)
chain: GVGSVAALLTVVFYIAAVMATNLYGATFPEWFGDLSKSLYTLFQVMTLESWSMGIVRPVMNVHPNAWVFFIPFIMLTTFTVLNLFIGIIVDAMAITKEQEEECKTGHHQEPISQTLLHLGDRLDRIEKQLAQNNELLQRQQPQKK
modifications: 3-(2-iodoacetamido)-PROXYL nitroxide spin label on cysteine 232
notes: source: E. coli C41(DE3), purified (HisTrap HP, thrombin, size exclusion), spin-labelled
B3: NavMs-pore+CTD A221C/D250C double mutant, PROXYL spin-labelled (domain or fragment, Magnetococcus marinus MC-1, UniProt A0L5S6 130-274, looked up)
chain: GVGSVAALLTVVFYIAAVMATNLYGATFPEWFGDLSKSLYTLFQVMTLESWSMGIVRPVMNVHPNAWVFFIPFIMLTTFTVLNLFIGIIVDCMAITKEQEEEAKTGHHQEPISQTLLHLGCRLDRIEKQLAQNNELLQRQQPQKK
modifications: 3-(2-iodoacetamido)-PROXYL nitroxide spin labels on cysteines 221 and 250
notes: as for B2
B4: NavMs-pore+CTD K273C, PROXYL spin-labelled (domain or fragment, Magnetococcus marinus MC-1, UniProt A0L5S6 130-274, looked up)
chain: GVGSVAALLTVVFYIAAVMATNLYGATFPEWFGDLSKSLYTLFQVMTLESWSMGIVRPVMNVHPNAWVFFIPFIMLTTFTVLNLFIGIIVDAMAITKEQEEEAKTGHHQEPISQTLLHLGDRLDRIEKQLAQNNELLQRQQPQCK
modifications: 3-(2-iodoacetamido)-PROXYL nitroxide spin label on cysteine 273
notes: as for B2
B5: NavMs-pore+CTD A260C, PROXYL spin-labelled (domain or fragment, Magnetococcus marinus MC-1, UniProt A0L5S6 130-274, looked up)
chain: GVGSVAALLTVVFYIAAVMATNLYGATFPEWFGDLSKSLYTLFQVMTLESWSMGIVRPVMNVHPNAWVFFIPFIMLTTFTVLNLFIGIIVDAMAITKEQEEEAKTGHHQEPISQTLLHLGDRLDRIEKQLCQNNELLQRQQPQKK
modifications: 3-(2-iodoacetamido)-PROXYL nitroxide spin label on cysteine 260
notes: as for B2
B6: NavMs-pore+CTD A223C, PROXYL spin-labelled (domain or fragment, Magnetococcus marinus MC-1, UniProt A0L5S6 130-274, looked up)
chain: GVGSVAALLTVVFYIAAVMATNLYGATFPEWFGDLSKSLYTLFQVMTLESWSMGIVRPVMNVHPNAWVFFIPFIMLTTFTVLNLFIGIIVDAMCITKEQEEEAKTGHHQEPISQTLLHLGDRLDRIEKQLAQNNELLQRQQPQKK
modifications: 3-(2-iodoacetamido)-PROXYL nitroxide spin label on cysteine 223
notes: as for B2
B7: NavMs-pore+CTD I241C, PROXYL spin-labelled (domain or fragment, Magnetococcus marinus MC-1, UniProt A0L5S6 130-274, looked up)
chain: GVGSVAALLTVVFYIAAVMATNLYGATFPEWFGDLSKSLYTLFQVMTLESWSMGIVRPVMNVHPNAWVFFIPFIMLTTFTVLNLFIGIIVDAMAITKEQEEEAKTGHHQEPCSQTLLHLGDRLDRIEKQLAQNNELLQRQQPQKK
modifications: 3-(2-iodoacetamido)-PROXYL nitroxide spin label on cysteine 241
notes: as for B2
B8: NavMs-pore+CTD D250C, PROXYL spin-labelled (domain or fragment, Magnetococcus marinus MC-1, UniProt A0L5S6 130-274, looked up)
chain: GVGSVAALLTVVFYIAAVMATNLYGATFPEWFGDLSKSLYTLFQVMTLESWSMGIVRPVMNVHPNAWVFFIPFIMLTTFTVLNLFIGIIVDAMAITKEQEEEAKTGHHQEPISQTLLHLGCRLDRIEKQLAQNNELLQRQQPQKK
modifications: 3-(2-iodoacetamido)-PROXYL nitroxide spin label on cysteine 250
notes: as for B2
B9: NavMs-pore+CTD R268C, PROXYL spin-labelled (domain or fragment, Magnetococcus marinus MC-1, UniProt A0L5S6 130-274, looked up)
chain: GVGSVAALLTVVFYIAAVMATNLYGATFPEWFGDLSKSLYTLFQVMTLESWSMGIVRPVMNVHPNAWVFFIPFIMLTTFTVLNLFIGIIVDAMAITKEQEEEAKTGHHQEPISQTLLHLGDRLDRIEKQLAQNNELLQCQQPQKK
modifications: 3-(2-iodoacetamido)-PROXYL nitroxide spin label on cysteine 268
notes: as for B2
B10: NavMs-pore+CTD A221C, PROXYL spin-labelled (domain or fragment, Magnetococcus marinus MC-1, UniProt A0L5S6 130-274, looked up)
chain: GVGSVAALLTVVFYIAAVMATNLYGATFPEWFGDLSKSLYTLFQVMTLESWSMGIVRPVMNVHPNAWVFFIPFIMLTTFTVLNLFIGIIVDCMAITKEQEEEAKTGHHQEPISQTLLHLGDRLDRIEKQLAQNNELLQRQQPQKK
modifications: 3-(2-iodoacetamido)-PROXYL nitroxide spin label on cysteine 221
notes: as for B2

Target: the molecule itself
Test: SEC; Superdex 200 10/300 GL, buffer A (10 mM Tris-HCl pH 7.5, 100 mM NaCl, 0.52% HEGA-10); detergent-solubilised protein

Stoichiometry N, 4:
B1
B2
B3
B4
B5
B6
B7
B8
B9
B10
